Test system: HGFR signaling
Test: Western blotting of phosphorylated HGFR, AKT, ERK, FAK in HCT116 cells
Assay type: cell-based, human
Conditions: for phosphorylation of HGFR, AKT, and ERK: FIG. 7D
Procedure: FIGS. 2A to 2K. EpEX promotes tumor progression via HGFR signaling. (FIG. 2A) WT or EpCAM knockout (KO) HCT116 and HT29 cells treated with HGF (0.5 nM) for 15 min. The phosphorylation of HGFR, AKT, and ERK was examined by Western blotting. (FIG. 2B) WT or KO HCT116 and HT29 cells were treated with HGF (0.5 nM) with 2% FBS for the indicated times. Cell growth was examined by the WST-1 assay. (FIG. 2C) Starved HCT116 cells were treated with HGFR inhibitor SU11274 (SU, 10 μM) for 1 h then treated with 50 nM of EpEX-His for 15 min. The levels of phosphorylated HGFR, EGFR, AKT, and ERK were examined by Western blotting. HCT116 and HT29 cells were treated with 50 nM EpEX and SU (10 μM). (FIG. 2D) Cell growth was examined by WST-1 assay after treatment for indicated time. (FIG. 2E) HCT116 cells were treated with shLuc or HGFR shRNA then treated with 50 nM of EpEX-His for 15 min. The levels of phosphorylated HGFR, EGFR, ERK, and AKT were examined in HGFR knockdown HCT116 cells by Western blotting. (FIG. 2F) The levels of phosphorylated ADAM17 and presenilin 2 were examined by Western blotting. (FIG. 2G) Active β-catenin nuclear translocation was assay by using Western blotting. (H) HCT116 cells were treated with shLuc or HGFR shRNA then treated with 50 nM of EpEX-His for indicated times. Cell growth was examined by the WST-1 assay. (FIG. 2I) HCT116 cells after shLuc and shHGFR treatment were treated with 50 nM of EpEX-His with 2% FBS for 7 days. Colony formation was examined by crystal violet staining.
FIGS. 6A to 6J. EpAb2-6 inhibits EpCAM and HGFR signaling and promotes active β-catenin and Snail protein degradation via activating GSK3β. (FIG. 6A) HCT116 cells were treated with 10 μg/ml control IgG (normal mouse IgG, NMIgG) or mouse EpAb2-6 (EpAb2-6) for 16 h, followed by treatment with EpEX-His (50 nM) for 15 min. Levels of phosphorylated HGFR, AKT, FAK, GSK3β, ERK, ADAM17, and presenilin 2 were examined by Western blotting. (FIG. 6B) HCT116 cells were treated with 10 μg/ml control IgG or mouse EpAb2-6 for 16 h, followed by treatment without or with HGF (0.5 nM) for 15 min. Levels of phosphorylated HGFR, AKT, and ERK were examined by Western blotting. HCT116 cells were treated with mouse EpAb2-6 (10 μg/ml) and HGF (0.5 nM). (FIG. 6C) Cell migration was examined by the wound healing assay at the indicated times. (FIG. 6D) Cell invasion was assessed by a Transwell assay with matrigel after 24 h. (FIG. 6E) HCT116 cells were treated with NMIgG or EpAb2-6 for 6 h and then immunoprecipitated with anti-EpCAM (IP: EpCAM) or anti-HGFR (IP: HGFR) antibodies, followed by Western blotting. (FIG. 6F) EpEX-His (2 μg/ml) co-treated with 1 μg IgG or EpAb2-6 was added to HGFR-Fc-coated (1 μg/ml) ELISA plates and detected by TMB colorimetric peroxidase assay. (FIG. 6G) EMT associated protein levels were detected by Western blotting in HCT116 cells treated with NMIgG or EpAb2-6 for 24 h. (FIG. 6H) Protein expression was analyzed by Western blotting in HCT116 cells after treatment with EpAb2-6 and 2 μM GSK3β inhibitor (BIO) for 24 h. Quantification of the normalized protein expression in the bottom panel. (FIG. 6I) HCT116 cells were treated with 10 μM MG132 and EpAb2-6 for 6 h before cell collection and subsequent Western blotting. (FIG. 6J) Stability of Snail protein in HCT116 cells treated with NMIgG or EpAb2-6. Cells were treated with cyclohexamide (CHX) 100 μg/ml at the indicated intervals and subjected to Western blotting.
FIGS. 7A to 7G. EpAb2-6 binds EpEX and induces apoptosis by F(ab′)2 and inhibits regulated intramembrane proteolysis (RIP) activation and HGFR signaling. (FIG. 7A) Binding affinity of IgG EpAb2-6 (mouse) and F(ab′)2 to EpEX-His (1 μg/ml) coated overnight was checked using ELISA (OD450). (FIG. 7B) HCT116 cells were treated with 100 μg/ml control IgG, Fc, or F(ab′)2 of EpAb2-6 for 24 h. The apoptotic and necrotic cells were quantified by fluorescein annexin V-FITC/PI double labeling. […]

[1] = HCT116, 10 μg/ml 16 h, then EpEX-His 50 nM 15 min

## Cc1[nH]c(C=C2C(=O)Nc3ccc(S(=O)(=O)N(C)c4cccc(Cl)c4)cc32)c(C)c1C(=O)N1CCN(C)CC1 (stereo in doubt) [SU11274, (3Z)-N-(3-Chlorophenyl)-3-({3,5-dimethyl-4-[(4-methylpiperazin-1-yl)carbonyl]-1H-pyrrol-2-yl}methylene)-N-methyl-2-oxo-2,3-dihydro-1H-indole-5-sulfonamide]
HCT116 cells, SU 10 μM 1 h, then 50 nM EpEX-His 15 min, FIG. 2C
  EpEX-mediated ERK and AKT phosphorylation: attenuate EpEX-mediated ERK and AKT phosphorylation

## MT201: human anti-EpCAM antibody, adecatumumab (MT201)
[1]
  phosphorylation of HGFR, AKT, and ERK: did not

B1: EpAb2-6: anti-EpCAM neutralizing monoclonal antibody targeting EpEX; VH SEQ ID NO: 15, VL SEQ ID NO: 16 (antibody, listed as Homo sapiens, V domains shown)
VH: VKLQESGPELKKPGETVKISCKASGYTFTDYSMHWVKQAPGKGLKWMGWINTETGEPTYADDFKGRFAFSLETSASTAYLQINNLKNEDTATYFCARTAVYWGQGTTVTVSS
VL: DIQMTQSPSSLSASLGERVSLTCRASQEISVSLSWLQQEPDGTIKRLIYATSTLDSGVPKRFSGSRSGSDYSLTISSLESEDFVDYYCLQYASYPWTFGGGTKLEIKRADAAPTVS
[1]
  phosphorylation of HGFR, AKT, and ERK: inhibited phosphorylation of HGFR, AKT, and ERK
HCT116, 10 μg/ml 16 h, then EpEX-His 50 nM 15 min, vs control IgG, FIG. 6A
  phosphorylation of HGFR, AKT, ERK, and FAK: decreased phosphorylation of HGFR, AKT, ERK, and FAK
HCT116, 10 μg/ml 16 h, without or with HGF 0.5 nM 15 min, FIG. 6B
  phosphorylation levels of HGFR, AKT, and ERK: significantly decreased
After EpAb2-6 treatment, discussion statement
  levels of phosphorylated HGFR: decreased levels of phosphorylated HGFR
